The assay concerns the target recombinant human IL-1β (human) (UniProt P01584). Nature of the assay: cell-based or functional assay.
UniProt P01584, sequence (P01584 117-269 limits assumed): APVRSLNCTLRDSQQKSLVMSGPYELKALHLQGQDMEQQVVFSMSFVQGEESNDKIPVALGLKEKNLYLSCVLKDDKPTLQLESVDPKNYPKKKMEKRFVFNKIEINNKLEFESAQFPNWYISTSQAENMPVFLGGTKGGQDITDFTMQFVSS

With “IL-1 Hy2 (from UniProt Q8WWZ1 1-152) (ligand)”, the IL-1β induced PGE2 production in human fibroblasts (CCD 1098), PGE2 ELISA; IL-1 Hy2 at 1000 fold excess lay in the range of 40 to 60 % inhibition.

The values above are taken from patent US6372892.
